The text below walks through data of a protein production outcome set (Wang et al. 2014).

The series is described as follows: label from the status in PepcDB records.
On to “MTQQNHLRGVLLASSACILWGISGVAASTLFINNPHLTAMWLTQVRMISAGLILLVWGMVAGKHPFKIWHHRHAAWTAVSYGLLGLIPVQLCYFEAVRVGNAPIATIIQFLGPFIISIYYFLFKHVTPSRIELIGMIMAFIGTLLIVTHGHLNSLAISPVILFWGGLSAIGVATNTLIPRTILPKYGALTVTGWGLLIAGLFLTLLQPMWRVHLTITWPQLGLLIVIILLGTVAPFLMFARSLSDILPTTASLMDAFEPLAATVFSITFLNVQLTSFDFIGGLLIILAVMALSLNTHKMLHFLRRRRAHSSS”, for which the protein production entry was “failed”.

“MDKIIIQGARENNLKNIFLEIPKNQFVVFTGLSGSGKSTLAFDTLYAEGQRRYLESLSSYARQFLDKVGKPNVDKIEGLTPAIAIDQKTTSKNPRSTVGTITEIYDYLRLLFARVGEQFCPTCLEPISSMSTSDIISQICHLEENSKIIILAPIIKDKKGSFNDKLESLRLKGYVRAFVDGVMVRLDEEIHLHKTKKHTIEAVVDRVVVNNENASRIASAIEKALKESYGELEVEILQDNAPSIRKHYSEHKACFKCKMSFEELEPLSFSFNSPKGACESCLGLGTKFSLDISKILDPNTPLNQGAIKVIFGYNRSYYAQMFEGFCEYNGIDSALCFNELNKEQQDALLYGNGTEISFHFKNSPLKRPWKGIIQIAYDMFKEQKDLSDYMSEKTCSSCEGHRLKASSLSVQVAGLKMADFLTKPIEEVYHFFNDPTHFSYLNEQEKKIAEPILKEILERVFFLYDVGLGYLTLGRDARTISGGESQRIRIASQIGSGLTGVLYVLDEPSIGLHEKDTLKLINTLRNLQKKGNTLIVVEHDKETIKHADFVVDIGPKAGRHGGEVVFSGSVKELLQNNHSTALYLNGTKKIERPKFELPKEKHFLEIKNVNINNIKNLSVQIPLKQLVCITGVSGSGKSSLILQTLLPTAQTLLNHAKKTQSLNGVEIVGLEHLDKVIYLDQAPIGKTPRSNPATYTGVMDEIRILFAEQKEAKILGYSASRFSFNVKGGRCEKCQGDGDIKIEMHFLPDVLVQCDSCKGAKYNPQTLEIKVKGKSIADVLNMSVEEAYEFFAKFPKIAVKLKTLMDVGLGYITLGQNATTLSGGEAQRIKLAKELSKKDTGKTLYILDEPTTGLHFEDVNHLLQVLHSLVALGNSMLVIEHNLDIIKNADYIIDMGPDGGDKGGKVIASGTPLEVAQNCEKTQSYTGKFLALELK”: the protein production result is on record as “failed”.

Take “GPVPTPPDNIQVQENFNISRIYGKWYNLAIGSTCPWLKKIMDRMTVSTLVLGEGATEAEISMTSTRWRKGVCEETSGAYEKTDTDGKFLYHKSKWNITMESYVVHTNYDEYAIFLTKKFSRHHGPTITAKLYGRAPQLRETLLQDFRVVAQGVGIPEDSIFTMADRGECVPGEQEPEPILIPRV”: the protein production entry is “not failed”.

For the sequence “MKKLILSALVLGGAMTFTAQAQNKAAEPAEEFFLEGRAMFIRQNYVGALDQFRLYRLHVGQEHALEVDYYSIIADYLLGADHDYVLSAVGNFLDNFPESIDKSRVRLLTGELMIRHEQYLRANTIFSDIDDRTLNDEDLAAYLLYYAYVRMQLSESNALAEQMLLKASESRGELGGRACLLLAAIQIEDGRIDEAEQTLSRLKNRPQFADEADAYIAEIQLLRGDYREAAEIADRLLSRNSPMRQRPQLLRVAGNAYYRLGDSNKTIDYLSDYSEKVGDRIAPADAYALGVTYYKQGLMKEALRPLAAATTDAGSLGAESALYLGQAQLAEGMTSEALMAFEKAATQDVNRPVREVGMYNMAMLMRSTGQSSFGQSVRIAENFLNEFPRSSHREQMAAILVESYFTGKDYNSSLRSIQKIAQPTASILAAKQFVLNRMAEQKEAAGYDSEALSFVSSSISMGNKGEYFPEAYFLRGNLRYRAGDFPTAAADYRAYISAAGDRDAANLPLGYYRLGYSLFNAERYDMALEAFKEYVSRSGIAPNLSADAYARIGDCRYMKRDFHGAREAYSMAYRVYPSGGDYALLRRARLEGLAKQYADQIQTLDKLIREFPDSRHLTAALYEKGCGAVLSGKHNVAEEAFNAVVKRSPDSREARQSSLQLGLLYYNTGRTKEAIRTYQRIIDRYPRSEETTVALSDLRSIYLEEDRIDEYSTYVRGLKDKVSIAPSETEQLGFLSAERKYRRRQPDARRDLEAYLERYPQGSDRHKAELYLADLDYQAGNADAAYNRYSRLVNSPGLPEDYKIDARLRLGRMQYERKEYKAALQSFQSVLDTDGAEAVRDQAVQGVTESAYADKDYRRVIDVIAGLKNQAALPHTLRLYRAKSYQALKMNREAIADYELLAEDFSTATGAEAVVMQAQLEMEAKRLSKAKSILEKFIAKSTPQQYWLARGFILLSDIYKKEGDTFTARQYLESLEKNYPNHEDDIHEQIAQRLE”, the protein production entry is recorded as “failed”.

As to “MGLKNIVVFVEPSNAGATRARYAVELARRHGAHLIGIFVASSDGPIPANAYVRGRDAMRRLIELHDANAIETTSVASRNFNTATNSADITYEFRIIREIESDDTKLHCLHADLVIVGHPRPGGLPLYSSAEGLLLATGIPFLIVPDGWPSGAVAQRVLLAWNASREARRAITDSLPLLSAAQSVSIVVIDSAKNRLHGENPGADVAVYLSRHGAHVTTEQIDSNGSPIADVILQHAVHGGFDLIVLGAYSHARVREAVFGGVTRSLLKLATIPMLIAH”, the protein production entry is reported as “failed”.

As to “EGLNICKKIMVISDKNDAISEFIIKELERGCTIIDGKGGYTGKDTYILYTVLNRKEFIRLRIFIKETDPNAFITISDAKEVLGEGFKEI”, the protein production result is given as “not failed”.

In the case of “MADLFDGMKRRMDALIAERFGMKVNINGTDCIVVESDFLAELGPVEGNGKNVVVFSGNVIPRRGDRVVLRGSEFTVTRIRRFNGKPQLTLEENNGGKGA”, the protein production result is on record as “not failed”.

As for “MVLLEKLWDDVVAGPQPDRGLGRLRKITTQPINIRDIGEGSSSKVVMHRSLTMPAAVSPGTPTTPTTPTTPRKDNVWRSVFNPGSNLATRAIGSNIFDKPTHPNSPSVYDWLYSGDSRSQHR”, the protein production entry was “failed”.

As for “MNIILNVFLIFVSAILTKLFALFAQHTKLIDIPNERNLHSRPTVRGGGLVFIGLSLFCWFFICNSQFFLTLDQFIFSIAIIFIATISFIDDFYNLSVTIRFFFQCLIAFLIVIFILPSQLDFGLFLFENTYLIAFFLFFAVIWAINHFNFMDGLDGFCASQAIFLLAAYALFFNSAGSLIYQDFCLILISSLAGFLIFNFPPAKIFMGDVGSASLGLITFFIAIIAQKNYQIPILYWFILNSLFLFDSTVTLIRRIIKHEKWFSPHKKHAYQRLKQLGINSRFILLGQAIINGSLFLSVMFMHFQFFNLKNLIIIQLCYLSAIYFFIEKKYPME”, the protein production result is recorded as “failed”.

For the sequence “MGLVTDEVRARAEKYTGDEICREKTKEFLKEVSMPNGLLPLKDIEEVGYDRETGIVWLKQKKSITHKFEAIGKLVSYATEVIAQVEVGKIKKLTGVKAKELLIWVTLNELVLEQPTSSGKINFRTPTGLSRTFPVSAFVVPEVEKPATEKNNGTTEVKEAVAVTDA”, the protein production entry is reported as “failed”.

With “MTIPLIIGGVLLAILILLILVFITKYRTVGPDEALIVTGNWLGGGKNVVTTDDGKKIKIIRGGGTFVVPIMQRAEPLSLLNYKLEVGTRDTYTKQGVPVTVNGVSIIKVGSTIEEVSTAAEQYLGKETEELKVEAKEVLEGHLRAILSSMTVEDAYSNREQFAQKVHEVASTDLKKMGLRIVSFTIKEIMDKNGYLDALGQPQIATVKRDATIANAEREKEARIEKARAEKEAKEAEYQRDAQIAEAEKHKELKVQSYKREQEQARADADLSYELQQAKAQQGVTEEQMRVKIIEREKQIELEEKEIARREKQYDAEVKKKADADRYAVEQSAEAEKVKQIKKADADQYKIEAEARARAEEVRVEGLAKAEIEKAQGQAKAEVQKAQGTAEADVIRLKGLAEAEAKQKIAEAFELYGQAAIMDMVLKMLPSYAKEVASPLSNIDKITVVDTGGGGKNSGAGKVAGYATDLMATMQETLKASSGIDLKELLEGFAGKGAVQQLSSDKPVVSVVEDKKKEVEKDKE”, the protein production entry is reported as “failed”.

For the sequence “MSWTVDIPKEVLPDLPPLPEGMQQQFEDTISRDAKQQPTWDRAQAENVRKILESVPPIVVAPEVLELKQKLADVANGKAFLLQGGDCAETFESNTEPHIRANVKTLLQMAVVLTYGASTPVIKMARIAGQYAKPRSSDLDGNGLPNYRGDIVNGVEATPEARRHDPARMIRAYANASAAMNLVRALTSSGTADLYRLSEWNREFVANSPAGARYEALAREIDSGLRFMEACGVSDESLRAADIYCSHEALLVDYERSMLRLATDEEGNEELYDLSAHQLWIGERTRGMDDFHVNFASMISNPIGIKIGPGITPEEAVAYADKLDPNFEPGRLTIVARMGHDKVRSVLPGVIQAVEASGHKVIWQSDPMHGNTFTASNGYKTRHFDKVIDEVQGFFEVHRALGTHPGGIHIEFTGEDVTECLGGAEDITDVDLPGRYESACDPRLNTQQSLELAFLVAEMLRN”, the protein production entry is given as “failed”.

“MTFASPDDVIRRFDEQNYLLDTGTASAIYLAVTLGRPLLLEGEPGVGKTTAAKTLAVVLDTTLIRLQCYEGLTANEALYDWNYQRQLLSIRLAEARGKGISDISEADLYTEAYLVDRPILRCVRHRGPTPPVLLIDEIDRADDEFEALLLEFLGESAVTVPELGTFLAECPPIAVLTSNRSRDLHDALRRRCLYHWIDYPEPDRAAAIVRRTVPGATAPLIENATQFVCTARDLDLDKPPGVAETIDWVAALVALGVADLTAADSSPALASLGALAKTPDDRTQIRDAYQAFTECSHA”: the protein production entry is given as “failed”.

For the sequence “MHHQQRMAALGTDKELSDLLDFSAMFSPPVSSGKNGPTSLASGHFTGSNVEDRSSSGSWGNGGHPSPSRNYGDGTPYDHMTSRDLGSHDNLSPPFVNSRIQSKTERGSYSSYGRESNLQGCHQQSLLGGDMDMGNPGTLSPTKPGSQYYQYSSNNPRRRPLHSSAMEVQTKKVRKVPPGLPSSVYAPSASTADYNRDSPGYPSSKPATSTFPSSFFMQDGHHSSDPWSSSSGMNQPGYAGMLGNSSHIPQSSSYCSLHPHERLSYPSHSSADINSSLPPMSTFHRSGTNHYSTSSCTPPANGTDSIMANRGSGAAGSSQTGDALGKALASIYSPDHTNNSFSSNPSTPVGSPPSLSAGTAVWSRNGGQASSSPNYEGPLHSLQSRIEDRLERLDDAIHVLRNHAVGPSTAMPGGHGDMHGIIGPSHNGAMGGLGSGYGTGLLSANRHSLMVGTHREDGVALRGSHSLLPNQVPVPQLPVQSATSPDLNPPQDPYRGMPPGLQGQSVSSGSSEIKSDDEGDENLQDTKSSEDKKLDDDKKDIKSITSNNDDEDLTPEQKAEREKERRMANNARERLRVRDINEAFKELGRMVQLHLKSDKPQTKLLILHQAVAVILSLEQQVRERNLNPKAACLKRREEEKVSSEPPPLSLAGPHPGMGDASNHMGQM”, the protein production result is on record as “failed”.

In the case of “MTGRIVHFEIPFDDGDRARAFYRDAFGWAIAEIPDMDYSMVTTGPVGESGMPDEPGYINGGMMQRGEVTTPVVTVDVESIESALERIESLGGKTVTGRTPVGNMGFAAYFTDSEGNVVGLWETAR”, the protein production result was “not failed”.

For the sequence “MRLSAEQVVEVLRAAGESTRLRLLALLAAEELSVLELCRILDQSQPRVSRHLKLLAEAGLVERFPDGAWVFYRLAAKSPGRLLVEQALDLIDEGDETVQSDADKLAAVRAERSTDAQAYFARNAARWNEIRSLYVDEAEVEAAILRATGEGPFDEMVDLGAGAGRMLTLLGKRAANALGLDLSQQMLNIARDEVSKAGLTACELRHGDIFRTGLPGGCADLVTVHQVLHYLTDPATAVAEAARLVTPGGLLLIADFAPHGHEFLREVHQHRRLGFDDAEIVAWLQAAGLVLESNIALPPATAEGLTVKIWTARRPGKASLERSAA”, the protein production result is listed as “failed”.

Consider “MDNEEYYKILGVAKSASQDEIKHAYRKMSKKYHPDLNHQPGAEDKYKQVQEAYETLGDPQKRAAYDQYGKAGANANNGQGGFGGFQQSGFNFNGQDFGDFSDIFSQMFGGSFNPNAPRKGRDLQYRINLTFEEAVFGKETEIKYVRQESGGNSKEHTVKVTIPAGVETGQQMRLAGQGEAGTHGGPYGDLYVEFIVGKSKDGFERQGANIYLEEPINFVQAALGDKIKVKTVHGDVELTIPAGTQTDTEFRLRGKGAPYVNSSRIGDEYVKVIVQVPKRLNEKEKKALKTYADLRGENVNPQKRRGLFG”, for which the protein production entry was “failed”.
